Measurements reported in patent US20250346668A1.
Positions count from the first letter of the chain named. One block for each binder: values may come before it.

Target: Human CD3e/g protein (human) (UniProt P07766)
Test: ELISA, coated hCD3e/g

- EC50: 0.21 nM
- OD450 nm at 0.000853 nM: 0.207 OD450 nm
- OD450 nm at 0.0043 nM: 0.12 OD450 nm
- OD450 nm at 0.02 nM: 0.24 OD450 nm
- OD450 nm at 0.11 nM: 0.89 OD450 nm
- OD450 nm at 0.53 nM: 3.2 OD450 nm
- OD450 nm at 2.67 nM: 3.64 OD450 nm
- OD450 nm at 13.3 nM: 3.67 OD450 nm
- OD450 nm at 66.7 nM: 3.67 OD450 nm
B1: mAb001 (antibody, V domains shown)
VH: QVQLQQSGPELVKPGASVKISCKASGYSFTNYYMHWVKQRPGQGLEWIGWTYPGNNNIKYNEKFKGKATLTADTSSSTAYMQLSSLTSEDSAVYYCARDGYGYYFFDYWGQGIILTVSS
VL: DIVMSQSPSSLAVSAGEKVTMSCKSSQSLLNNRTRKNYLAWYQQKPGQSPKLLIYWASTRESGVPDRFTGSGSGTDFTLTISSVQAEDLAIYYCKQSYTLRTFGGGTKLAIK

- EC50: 0.22 nM
- OD450 nm at 0.000853 nM: 0.123 OD450 nm
- OD450 nm at 0.0043 nM: 0.111 OD450 nm
- OD450 nm at 0.02 nM: 0.27 OD450 nm
- OD450 nm at 0.11 nM: 0.76 OD450 nm
- OD450 nm at 0.53 nM: 2.96 OD450 nm
- OD450 nm at 2.67 nM: 3.39 OD450 nm
- OD450 nm at 13.3 nM: 3.47 OD450 nm
- OD450 nm at 66.7 nM: 3.41 OD450 nm
B2: mAb007 (antibody, V domains shown)
VH: QVQLQQSGPELVKPGASVKISCKASGSTFTDNYIHWVKQRPGQGLEWIGWIYPGSVNIKYNEKFKDKATLTADTSSTTAYMQLSSLSSEDSAIYYCARDISRYYFDYWGQGTTLTVSS
VL: B1 VL with K18R, S22N, N32S, I91V, Y98F, T99I
